# Measured values reported in patent US9274110B2, “Diagnosis method of active tuberculosis” (priority 2011, dated 2016).
# B1: LipY: triacylglycerol hydrolase LipY (Rv3097c) of Mycobacterium tuberculosis, SEQ ID NO: 3 (protein, listed as Mycobacterium tuberculosis)
# chain: PEVVFIHGSVVSYVVALPEVMSAAATDVASIGSVVATASQGVAGATTTVLAAAEDEVSAAIAALFSGHGQDYQALSAQLAVFHERFVQALTGAAKGYAAAELANASLLQSEFASGIGNGFATIHQEIQRAPTALAAGFTQVPPFAAAQAGIFTGTPSGAAGFDIASLWPVKPLLSLSALETHFAIPNNPLLALIASDIPPLSWFLGNSPPPLLNSLLGQTVQYTTYDGMSVVQITPAHPTGEYVVAIHGGAFILPPSIFHWLNYSVTAYQTGATVQVPIYPLVQEGGTAGTVVPAMAGLISTQIAQHGVSNVSVVGDSAGGNLALAAAQYMVSQGNPVPSSMVLLSPWLDVGTWQISQAWAGNLAVNDPLVSPLYGSLNGLPPTYVYSGSLDPLAQQAVVLEHTAVVQGAPFSFVLAPWQIHDWILLTPWGLLSWPQINQQLGIAASDIHHHHHH
# Conditions: cell wall of M. smegmatis overexpressing LipY vs control mycobacteria; 0.5 mM substrate, 40 min, 35° C.
molecule,measurement,value
B1,"Lipase activity: degradation of para-Nitrophenyl stearate, absorbance at 405 nm",demonstrating the lipase activity
